Experimental data: publication PMC3154745

Molecular target: Full length mammalian HP1β (human or mouse (sequences identical)) (UniProt P83916)
Assay: AUC

Full length mammalian HP1β, P83916 1-185 (natural protein; other documents disagree on this pair), sequence (P83916 whole entry): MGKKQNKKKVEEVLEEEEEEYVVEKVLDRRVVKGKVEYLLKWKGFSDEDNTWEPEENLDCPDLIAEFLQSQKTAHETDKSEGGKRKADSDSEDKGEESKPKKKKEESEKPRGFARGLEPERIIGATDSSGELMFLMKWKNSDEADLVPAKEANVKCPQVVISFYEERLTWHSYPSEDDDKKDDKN

“Full length mammalian HP1β, P83916 1-185 (natural protein; other documents disagree on this pair)” was tested, and the Kd was 500 nM.
